Results on 58 substances are retold here after the supplement of paper PMC10598134.

The data set can be described thus: collision cross section of modified peptide (TIMS, N2, iRT-aligned); higher = larger / more extended gas-phase ion. The essentials:
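Collision cross section was derived from the Mason-Schamp equation. Each value averages 1–3 technical replicates of the most abundant feature per charge state, measured on a timsTOF Pro/HT in dda-PASEF mode (nitrogen, ~2.4 mbar) after a 120-min nanoflow C18 gradient at 60 °C. Synthetic peptide pools (~100 fmol/µL in 2% acetonitrile/0.1% formic acid, iRT standard spiked 1:40) were identified with MaxQuant, and 1/K0 was calibrated with three reference ions and aligned run-wise to the median iRT peptide deviation.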

Where [1] appears, read: charge state: 2, modification: Phospho (Y).
Where [2] appears, read: charge state: 2, modification: GlyGly (K).
Where [3] appears, read: charge state: 2, modification: Butyryl.
Setting [4] is: charge state: 3, modification: GlyGly (K).
[5] abbreviates: charge state: 2, modification: Citrullination (R).
[6] abbreviates: charge state: 2, modification: Succinyl.
[7] abbreviates: charge state: 3, modification: Succinyl.
[8] abbreviates: charge state: 2, modification: Methyl (K).
Where [9] appears, read: charge state: 3, modification: Methyl (K).
The mark [10] stands for this setting: charge state: 2, modification: HexNAc (ST).
The mark [11] stands for this setting: charge state: 2, modification: Formyl.
Setting [12] is: charge state: 2, modification: Nitro (Y).
The mark [13] stands for this setting: charge state: 3, modification: Nitro (Y).
Where [14] appears, read: charge state: 2, modification: hydroxyisobutyryl.
The mark [15] stands for this setting: charge state: 3, modification: hydroxyisobutyryl.
Setting [16] is: charge state: 3, modification: Formyl.
The mark [17] stands for this setting: charge state: 2, modification: Acetyl (K).
[18] abbreviates: charge state: 3, modification: Acetyl (K).
Setting [19] is: charge state: 2, modification: Trimethyl (K).
Setting [20] is: charge state: 3, modification: Trimethyl (K).
The mark [21] stands for this setting: charge state: 2, modification: Biotin.
Setting [22] is: charge state: 3, modification: Butyryl.
The mark [23] stands for this setting: charge state: 2, modification: Malonyl.
[24] abbreviates: charge state: 2, modification: Propionyl.

± gives the standard deviation.

In turn, APEYLHR [_APEY(Phospho (Y))LHR_] displayed a collision cross section under setting [1] of 334.14 ± 1.5 Å².

In the case of SGFGKFER [_SGFGK(GlyGly (K))FER_], under setting [2], the collision cross section stood at 340.43 ± 0.74 Å².

For “SGKFTQQDIDEAK [_SGK(Butyryl)FTQQDIDEAK_]”, the collision cross section under setting [3] is on record as 419.52 ± 1.7 Å².

Take PSVSTKLISK [_PSVSTK(GlyGly (K))LISK_]: the collision cross section was found to be 370.29 ± 0.38 Å² under setting [2] and 434.33 ± 3 Å² under setting [4].

In turn, “SGRGGNFGFGDSR [_SGR(Citrullination (R))GGNFGFGDSR_]” returned a collision cross section under setting [5] of 379.38 ± 0.54 Å².

Regarding “VGIDTPDIDIHGPEGKLK [_VGIDTPDIDIHGPEGK(Succinyl)LK_]”, the collision cross section under setting [6] stood at 494.78 Å² and the collision cross section under setting [7] was 540.29 ± 1.1 Å².

For “ATVASSTQKFQDLGVK [_ATVASSTQK(Methyl (K))FQDLGVK_]”, the collision cross section came to 464.26 ± 2.2 Å² under setting [8] and 478.87 ± 3.4 Å² under setting [9].

Under setting [1], LYDIDVAK [_LY(Phospho (Y))DIDVAK_] yielded a collision cross section of 363.27 ± 0.78 Å².

Turning to LTEKELAEAASK [_LTEK(Succinyl)ELAEAASK_], the collision cross section runs as follows: under setting [6], 389.23 ± 1.1 Å²; under setting [7], 454.1 Å².

On to KYEEIDNAPEER [_K(Succinyl)YEEIDNAPEER_], for which the collision cross section came out at 412.18 ± 0.54 Å² under setting [6] and 490.15 Å² under setting [7].

On to “TSSEASVSSSVAK [_T(HexNAc (ST))SSEASVSSSVAK_]”, for which the collision cross section under setting [10] came out at 394.41 ± 0.76 Å².

Under setting [1], TSAYGPPTR [_TSAY(Phospho (Y))GPPTR_] registered a collision cross section of 336.75 ± 0.067 Å².

“VGLQVVAVKAPGFGDNR [_VGLQVVAVK(GlyGly (K))APGFGDNR_]” registered a collision cross section under setting [2] of 471.7 ± 1.6 Å² and a collision cross section under setting [4] of 536.75 ± 1.1 Å².

Consider “VDIDAPDVSIEGPDAKLK [_VDIDAPDVSIEGPDAK(Formyl)LK_]”, for which the collision cross section under setting [11] was determined as 461.12 Å².

Turning to “GPQNATDSYVHK [_GPQNATDSY(Nitro (Y))VHK_]”, the collision cross section under setting [12] was 386.3 ± 0.94 Å² and the collision cross section under setting [13] was 449.51 ± 0.23 Å².

Take AYGELPEHAK [_AY(Nitro (Y))GELPEHAK_]: the collision cross section turned out to be 361.5 ± 1.2 Å² under setting [12] and 445.86 ± 1.2 Å² under setting [13].

“VDVEVPDVSLEGPEGKLK [_VDVEVPDVSLEGPEGK(hydroxyisobutyryl)LK_]”: the collision cross section by setting is: under setting [14], 470.57 ± 1.1 Å²; under setting [15], 549.45 ± 27 Å².

For “DYSAPVNFISAGLKK [_DYSAPVNFISAGLK(Methyl (K))K_]”, the collision cross section is listed as 451.15 ± 3.1 Å² under setting [8] and 513.65 ± 3.5 Å² under setting [9].

As to “GTVPDDAVEALADSLGKK [_GTVPDDAVEALADSLGK(Formyl)K_]”, the collision cross section under setting [11] stood at 449.34 ± 1.3 Å² and the collision cross section under setting [16] was 523.67 ± 1.8 Å².

As for SPDEAYAIAKK [_SPDEAYAIAK(Acetyl (K))K_], the collision cross section runs as follows: under setting [17], 369.21 ± 0.94 Å²; under setting [18], 447.3 ± 0.6 Å².

In the case of “PGGEGPQCEKTTDVK [_PGGEGPQCEK(Succinyl)TTDVK_]”, the collision cross section under setting [6] is 437.41 ± 1.1 Å².

With “FLQEFYQDDELGKK [_FLQEFYQDDELGK(Trimethyl (K))K_]”, the collision cross section came to 464.1 ± 0.55 Å² under setting [19] and 508.12 ± 1.8 Å² under setting [20].

In the case of “SSFAYKDQNENR [_SSFAYK(Trimethyl (K))DQNENR_]”, the collision cross section runs as follows: under setting [19], 417.36 ± 0.75 Å²; under setting [20], 458.31 ± 1.5 Å².

“SLEEEGAAHSGKR [_SLEEEGAAHSGK(Trimethyl (K))R_]”: the collision cross section under setting [20] is recorded as 465.19 ± 1.5 Å².

In turn, “LPEYPQVDDLLLR [_LPEY(Nitro (Y))PQVDDLLLR_]” yielded a collision cross section under setting [12] of 424.61 ± 1.1 Å².

Take GSLEKGSPEDK [_GSLEK(Biotin)GSPEDK_]: the collision cross section under setting [21] amounted to 382.87 Å².

For “GSAPPGPVPEGSIR [_GS(HexNAc (ST))APPGPVPEGSIR_]”, the collision cross section under setting [10] is listed as 399.5 ± 0.63 Å².

For “DAIHFYNKSLAEHR [_DAIHFYNK(GlyGly (K))SLAEHR_]”, the collision cross section under setting [4] amounted to 519.9 ± 0.35 Å².

In the case of “TQDQISNIKYHEEFEK [_TQDQISNIK(Butyryl)YHEEFEK_]”, the collision cross section under setting [22] amounted to 559.77 ± 1.1 Å².

As to “LQAAYAGDKADDIQK [_LQAAYAGDK(Trimethyl (K))ADDIQK_]”, the collision cross section was 440.52 ± 0.59 Å² under setting [19] and 477.2 ± 1.8 Å² under setting [20].

Take “ISSNFSSIIAEKLR [_ISSNFSSIIAEK(Dimethyl (K))LR_]”: the collision cross section runs as follows: (charge state: 2, modification: Dimethyl (K)) 442.58 ± 1.2 Å²; (charge state: 3, modification: Dimethyl (K)) 495.15 ± 0.74 Å².

On to AEGYEVAHGGR [_AEGY(Nitro (Y))EVAHGGR_], for which the collision cross section reads like this: under setting [12], 365.03 ± 0.17 Å²; under setting [13], 442.95 ± 1.1 Å².

Under setting [4], “TFGKAAGPSLSHTSGGTQSK [_TFGK(GlyGly (K))AAGPSLSHTSGGTQSK_]” returned a collision cross section of 526.57 ± 0.59 Å².

For “VNIGQGSHPQKVK [_VNIGQGSHPQK(Butyryl)VK_]”, the collision cross section stood at 432.28 ± 0.24 Å² under setting [3] and 485.89 ± 2.6 Å² under setting [22].

With SKHLQEQLNELK [_SK(Formyl)HLQEQLNELK_], the collision cross section is recorded as 412.77 ± 0.19 Å² under setting [11] and 477.47 ± 2.1 Å² under setting [16].

Under setting [23], SLKLNTAEDAK [_SLK(Malonyl)LNTAEDAK_] displayed a collision cross section of 374.06 ± 0.0012 Å².

Substance “FSAYIKNSNPALNDNLEK [_FSAYIK(Trimethyl (K))NSNPALNDNLEK_]” returned a collision cross section under setting [20] of 516.88 ± 0.87 Å².

In the case of “LLIVSTTPYSEKDTK [_LLIVSTTPYSEK(hydroxyisobutyryl)DTK_]”, the collision cross section reads like this: under setting [14], 461.48 ± 0.76 Å²; under setting [15], 486.54 ± 2.8 Å².

As for TLDEILQEKK [_TLDEILQEK(Propionyl)K_], the collision cross section under setting [24] is reported as 380.38 Å².

As for “DTGEKLTVAENEAETK [_DTGEK(Succinyl)LTVAENEAETK_]”, the collision cross section came to 445.72 ± 1.1 Å² under setting [6] and 515.74 ± 2.2 Å² under setting [7].

With VFSIISSEKELK [_VFSIISSEK(Biotin)ELK_], under setting [21], the collision cross section is on record as 432.12 ± 1.1 Å².

Take INNFSADIKDSK [_INNFSADIK(Formyl)DSK_]: the collision cross section under setting [11] came out at 395.4 ± 0.83 Å².

Under setting [23], SGFGKFER [_SGFGK(Malonyl)FER_] returned a collision cross section of 335.56 Å².

Take “TPNLYIYSKK [_TPNLYIYSK(Trimethyl (K))K_]”: the collision cross section is, setting by setting: under setting [19], 381.37 ± 0.61 Å²; under setting [20], 442.31 Å².

Regarding “VDVEVPDVSLEGPEGKLK [_VDVEVPDVSLEGPEGK(Succinyl)LK_]”, the collision cross section under setting [6] was found to be 456.12 ± 0.34 Å² and the collision cross section under setting [7] was found to be 501.13 ± 1.5 Å².

In the case of “ASNAAVKLAESK [_ASNAAVK(Methyl (K))LAESK_]”, the collision cross section by setting is: under setting [8], 380.84 ± 0.65 Å²; under setting [9], 450.44 ± 4.8 Å².

FDDTNPEKEEAK [_FDDTNPEK(Succinyl)EEAK_] registered a collision cross section under setting [6] of 397.2 ± 0.56 Å² and a collision cross section under setting [7] of 438.25 ± 3.4 Å².

Regarding “DASTLQSQKAEGTGDAK [_DASTLQSQK(Propionyl)AEGTGDAK_]”, under setting [24], the collision cross section is listed as 434.77 ± 2.9 Å².

For the substance “GGQGPPGPQGPIGYPGPR [_GGQGPPGPQGPIGYP(Hydroxyproline)GPR_]”, the collision cross section turned out to be 420.55 ± 2.1 Å² (charge state: 2, modification: Hydroxyproline) and 474.06 ± 0.36 Å² (charge state: 3, modification: Hydroxyproline).

For the substance “ITESVAETAQTIKK [_ITESVAETAQTIK(Malonyl)K_]”, the collision cross section by setting is: under setting [23], 420.49 ± 0.57 Å²; (charge state: 3, modification: Malonyl) 509.94 ± 1.1 Å².

Consider GSLEKGSPEDK [_GSLEK(Butyryl)GSPEDK_], for which the collision cross section under setting [3] was found to be 371.66 ± 0.71 Å².

As for “SKHLQEQLNELK [_SK(Acetyl (K))HLQEQLNELK_]”, the collision cross section is, setting by setting: under setting [17], 415.42 ± 1.7 Å²; under setting [18], 483.11 ± 1.6 Å².

As to “GQDSTIAASEQQVAAR [_GQDS(HexNAc (ST))TIAASEQQVAAR_]”, the collision cross section under setting [10] turned out to be 438.46 ± 0.56 Å² and the collision cross section (charge state: 3, modification: HexNAc (ST)) was 532.78 ± 0.19 Å².

“HLRGHGPQPPLR [_HLR(Citrullination (R))GHGPQPPLR_]”: the collision cross section is, setting by setting: under setting [5], 393.67 ± 4.3 Å²; (charge state: 3, modification: Citrullination (R)) 482.78 ± 1.8 Å².

Turning to “VGIDTPDIDIHGPEGKLK [_VGIDTPDIDIHGPEGK(Formyl)LK_]”, the collision cross section is, setting by setting: under setting [11], 485.77 ± 1.5 Å²; under setting [16], 533.35 ± 1.3 Å².

For AAINQKLIETGER [_AAINQK(Biotin)LIETGER_], the collision cross section runs as follows: under setting [21], 426.96 ± 1.5 Å²; (charge state: 3, modification: Biotin) 497.24 Å².

Turning to “VGADGTVFATR [_VGADGTVFAT(HexNAc (ST))R_]”, the collision cross section under setting [10] was 366.62 ± 0.59 Å².

As for “LQEKVESAQSEQK [_LQEK(Trimethyl (K))VESAQSEQK_]”, the collision cross section is listed as 419.24 ± 2.2 Å² under setting [19] and 470.87 ± 1.8 Å² under setting [20].
